The source of these data is PMC6050537 (2018).

As usually defined, the Kd is the free concentration of one partner at which half of the binding sites on the other are occupied at equilibrium, for simple one-to-one binding.

The target in the assay is T1, Full length IDOL (1–445) (UniProt Q8WY64 1-445, NT-647-NHS dye (only the labelled copy in the MST assays)).
T1 chain: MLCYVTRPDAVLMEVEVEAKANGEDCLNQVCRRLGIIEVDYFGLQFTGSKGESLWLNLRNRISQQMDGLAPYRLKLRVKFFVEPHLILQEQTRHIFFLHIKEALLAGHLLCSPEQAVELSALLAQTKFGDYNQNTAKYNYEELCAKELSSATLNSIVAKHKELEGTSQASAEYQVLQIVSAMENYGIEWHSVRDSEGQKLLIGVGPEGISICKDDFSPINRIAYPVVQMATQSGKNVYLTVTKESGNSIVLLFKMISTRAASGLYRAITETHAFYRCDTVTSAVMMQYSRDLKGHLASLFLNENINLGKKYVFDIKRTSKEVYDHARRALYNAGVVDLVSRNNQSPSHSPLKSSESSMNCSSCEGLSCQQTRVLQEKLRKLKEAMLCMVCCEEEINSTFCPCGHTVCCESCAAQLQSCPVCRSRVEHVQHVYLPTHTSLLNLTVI
Description: MST.

Non-standard residues stand in square brackets, D forms with d. 1Nal = N[C@@H](Cc1cccc2ccccc12)C(=O)O

B1: RINGPep1 analogue containing 3-(1-naphthyl)-L-alanine (peptide)
chain: cyclo(CF[1Nal]LYT)
Regarding B1, the Kd was found to be 6.3 µM.

B2: RINGPep2 (cyclo-CF-Cha-LYT) (peptide)
chain: CFXLYT
HELM: PEPTIDE1{C.F.[Cha].L.Y.T}$PEPTIDE1,PEPTIDE1,1:R1-6:R2$$$V2.0
SMILES: CC(C)C[C@@H]1NC(=O)[C@H](CC2CCCCC2)NC(=O)[C@H](Cc2ccccc2)NC(=O)[C@H](CS)NC(=O)[C@H]([C@@H](C)O)NC(=O)[C@H](Cc2ccc(O)cc2)NC1=O
The molecule B2 displayed a dissociation constant (Kd) of 6.6 µM. The Kd values of the last two molecules are within 1.5-fold of each other.
